B1: PGC-1α: S333A (protein)
parent chain: MAWDMCSQDSVWSDIECAALVGEDQPLCPDLPELDLSELDVNDLDTDSFLGGLKWCSDQSEIISNQYNNEPANIFEKIDEENEANLLAVLTETLDSLPVDEDGLPSFDALTDGAVTTDNEASPSSMPDGTPPPQEAEEPSLLKKLLLAPANTQLSYNECSGLSTQNHAANHTHRIRTNPAIVKTENSWSNKAKSICQQQKPQRRPCSELLKYLTTNDDPPHTKPTENRNSSRDKCASKKKSHTQPQSQHAQAKPTTLSLPLTPESPNDPKGSPFENKTIERTLSVELSGTAGLTPPTTPPHKANQDNPFKASPKLKPSCKTVVPPPTKRARYSECSGTQGSHSTKKGPEQSELYAQLSKSSGLSRGHEERKTKRPSLRLFGDHDYCQSLNSKTDILINISQELQDSRQLDFKDASCDWQGHICSSTDSGQCYLRETLEASKQVSPCSTRKQLQDQEIRAELNKHFGHPCQAVFDDKSDKTSELRDGDFSNEQFSKLPVFINSGLAMDGLFDDSEDESDKLSYPWDGTQPYSLFDVSPSCSSFNSPCRDSVSPPKSLFSQRPQRMRSRSRSFSRHRSCSRSPYSRSRSRSPGSRSSSRSCYYYESSHYRHRTHRNSPLYVRSRSRSPYSRRPRYDSYEAYEHERLKRDEYRKEHEKRESERAKQRERQKQKAIEERRVIYVGKIRPDTTRTELRDRFEVFGEIEECTVNLRDDGDSYGFITYRYTCDAFAALENGYTLRRSNETDFELYFCGRKQFFKSNYADLDTNSDDFDPASTKSKYDSLDFDSLLKEAQRSLRR
B2: PGC-1α: OGT overexpression (protein)
parent chain: B1 parent chain

Key:
[1] = Figure S3B, method not described in text; settings: glycan lost; control: wild type
[2] = transcriptional activity assay; settings: glycan lost; control: wild type
[3] = IP, anti-ubiquitin blot with MG132, HEK 293T; settings: control: wild type

Row | Protein | other: phosphorylation [1] | other: transcriptional activity [2] | other: ubiquitination ([3]; glycan lost) | other: ubiquitination ([3]; glycan gained)
1 | B1 | no change | no change | increases | 
2 | B2 |  |  |  | decreases

Reference: publication PMC3480732
